Laboratory results reported in patent US20170119861.

How the values were obtained:
[1] = molecular target: Aβ40 high molecular weight fibrils, P05067
[2] = molecular target: Aβ42 fibrils, P05067
[3] = molecular target: Aβ42 oligomers, P05067
[4] = molecular target: synthetic Aβ40 peptide, P05067
[5] = molecular target: synthetic Aβ42 peptide, P05067
Chain of synthetic Aβ42 peptide, P05067 (P05067 whole entry, looked up, tested part not stated): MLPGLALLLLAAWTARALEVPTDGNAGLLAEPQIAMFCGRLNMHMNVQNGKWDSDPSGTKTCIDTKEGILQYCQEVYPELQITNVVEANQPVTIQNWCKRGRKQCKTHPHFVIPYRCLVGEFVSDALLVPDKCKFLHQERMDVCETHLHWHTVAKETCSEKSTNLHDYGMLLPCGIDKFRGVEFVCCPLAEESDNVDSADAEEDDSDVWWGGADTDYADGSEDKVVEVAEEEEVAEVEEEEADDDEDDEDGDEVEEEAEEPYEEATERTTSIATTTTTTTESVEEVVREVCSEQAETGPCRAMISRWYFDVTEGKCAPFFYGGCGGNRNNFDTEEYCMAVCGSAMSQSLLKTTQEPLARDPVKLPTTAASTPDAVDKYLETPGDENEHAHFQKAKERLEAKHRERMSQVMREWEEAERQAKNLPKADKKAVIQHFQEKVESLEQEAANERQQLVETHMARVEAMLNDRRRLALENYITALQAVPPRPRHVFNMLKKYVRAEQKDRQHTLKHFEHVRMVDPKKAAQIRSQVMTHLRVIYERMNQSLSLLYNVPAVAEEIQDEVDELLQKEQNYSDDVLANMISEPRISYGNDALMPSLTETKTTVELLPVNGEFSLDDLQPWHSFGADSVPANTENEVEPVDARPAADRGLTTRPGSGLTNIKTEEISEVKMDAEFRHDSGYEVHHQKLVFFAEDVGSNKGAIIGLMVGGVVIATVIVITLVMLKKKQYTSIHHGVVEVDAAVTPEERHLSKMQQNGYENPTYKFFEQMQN

Chain of synthetic Aβ40 peptide, P05067 (P05067 whole entry, looked up, tested part not stated): as above
Chain of Aβ42 oligomers, P05067 (P05067 whole entry, looked up): as the sequence (P05067 whole entry, looked up, tested part not stated) above
Chain of Aβ40 high molecular weight fibrils, P05067 (P05067 whole entry, looked up): as the sequence (P05067 whole entry, looked up, tested part not stated) above
Chain of Aβ42 fibrils, P05067 (P05067 whole entry, looked up): as the sequence (P05067 whole entry, looked up, tested part not stated) above

B1: protective protein/cathepsin A (PPCA) (protein)
chain: APDQDEIQRLPGLAKQPSFRQYSGYLKGSGSKHLHYWFVESQKDPENSPVVLWLNGGPGCSSLDGLLTEHGPFLVQPDGVTLEYNPYSWNLIANVLYLESPAGVGFSYSDDKFYATNDTEVAQSNFEALQDFFRLFPEYKNNKLFLTGESYAGIYIPTLAVLVMQDPSMNLQGLAVGNGLSSYEQNDNSLVYFAYYHGLLGNRLWSSLQTHCCSQNKCNFYDNKDLECVTNLQEVARIVGNSGLNIYNLYAPCAGGVPSHFRYEKDTVVVQDLGNIFTRLPLKRMWHQALLRSGDKVRMDPPCTNTTAASTYLNNPYVRKALNIPEQLPQWDMCNFLVNLQYRRLYRSMNSQYLKLLSSQKYQILLYNGDVDMACNFMGDEWFVDSLNQKMEVQRRPWLVKYGDSGEQIAGFVKEFSHIAFLTIKGAGHMVPTDKPLAAFTMFSRFLNKQPY
western blot of Aβ40 co-incubated with Cath A for up to 9 days during fibril formation [1]: Cath A significantly prevents formation of high molecular weight fibrils
western blot (E610) of day 9 Aβ42 fibrils after overnight treatment with 90 ng enzyme [2]: resulted in reduction/degradation of the fibril smear as well as degradation of oligomer species (line 4 compared to line 1)
western blot (A11) of day 9 Aβ42 oligomers after overnight treatment with 90 ng enzyme [3]: resulted in degradation of the lowest oligomer band (line 4)
ELISA with C-terminal capture antibody after 2 h incubation of Aβ40 with varying Cath A concentrations [4]: progressively reduced binding of Aβ40 peptide to C-terminal capture antibody with increasing concentration of Cath A
THT aggregation of Aβ40 after pre-incubation with Cath A for up to two hours [4]: Aβ40 peptide did not aggregate after pre-incubation with Cath A
THT aggregation of Aβ40 with simultaneous incubation with Cath A [4]: aggregation of Aβ40 amyloid is not affected by Cath A, in applied experimental settings, even when high concentration of enzyme is used
Aβ42 aggregation by THT assay and western blot [5]: PPCA can efficiently prevent formation of Aβ42 amyloid species
human Aβ42 specific ELISA signal after treatment with 90 ng cathepsin A (0-120 min, 37° C., pH 5.0) [5]: a loss of fluorescent signal already within first 10 min of treatment
